From US20200199204A1

Columns and labels:
Assay in all cases: cell-based or functional assay
[1] = biological target: HIV-1 Env of ZM233.6 (HIV-1)
[2] = biological target: HIV-1 Env of THRO.18 (HIV-1)
[3] = biological target: HIV-1 Env of PVO.04 (HIV-1)
[4] = biological target: HIV-1 Env of TRJO.58 (HIV-1)
[5] = biological target: HIV-1 Env of CAP244.D3 (HIV-1)
[6] = biological target: HIV-1 Env of WITO.33 (HIV-1)
[7] = biological target: HIV-1 Env of Q168.a2 (HIV-1)
[8] = biological target: HIV-1 Env of SC422.8 (HIV-1)
[9] = biological target: HIV-1 Env of UG037.8 (HIV-1)
[10] = biological target: HIV-1 Env of CAP256.PI (HIV-1)
[11] = biological target: HIV-1 Env of DU172.17 (HIV-1)
[12] = biological target: HIV-1 Env of 96ZM651.02 (HIV-1)
[13] = biological target: HIV-1 Env of 3016.V5.c36 (HIV-1)
[14] = biological target: HIV-1 Env of KER2008.12 (HIV-1)
[15] = biological target: HIV-1 Env of CM244.ec1 (HIV-1)
[16] = biological target: HIV-1 Env of 6535.3 (HIV-1)
[17] = biological target: HIV-1 Env of CAAN.A2 (HIV-1)
[18] = biological target: HIV-1 Env of Q769.d22 (HIV-1)
[19] = biological target: HIV-1 Env of ZM53.12 (HIV-1)
[20] = biological target: HIV-1 Env of 6405.v4.c34 (HIV-1)
[21] = biological target: HIV-1 Env of QH0692.42 (HIV-1)
[22] = biological target: HIV-1 Env of 0260.v5.c36 (HIV-1)
[23] = biological target: HIV-1 Env of RW020.2 (HIV-1)
[24] = biological target: HIV-1 Env of KER2018.11 (HIV-1)
[25] = biological target: HIV-1 Env of Q842.d12 (HIV-1)
[26] = biological target: HIV-1 Env of Q23.17 (HIV-1)
[27] = biological target: HIV-1 Env of MB201 (HIV-1)
[28] = biological target: HIV-1 Env of TRO.11 (HIV-1)
[29] = biological target: HIV-1 Env of TH976.17 (HIV-1)
[30] = biological target: HIV-1 Env of ZM197.7 (HIV-1)
[31] = biological target: HIV-1 Env of CAP210.E8 (HIV-1)
[32] = biological target: HIV-1 Env of C1080.c3 (HIV-1)
[33] = biological target: HIV-1 Env of CAP45.G3 (HIV-1)
[34] = biological target: HIV-1 Env of REJO.67 (HIV-1)
[35] = biological target: HIV-1 Env of DU422.01 (HIV-1)
[36] = biological target: HIV-1 Env of CAP256.SU (HIV-1)
[37] = biological target: HIV-1 Env of ZM109.4 (HIV-1)
[38] = biological target: HIV-1 Env of ZM249.1 (HIV-1)
[39] = biological target: HIV-1 Env of ZM135.10a (HIV-1)
[40] = biological target: HIV-1 Env of AC10.29 (HIV-1)
[41] = biological target: HIV-1 Env of ZM214.15 (HIV-1)
[42] = biological target: HIV-1 Env of DU156.12 (HIV-1)
[43] = biological target: HIV-1 Env of MB539.2B7 (HIV-1)
[44] = biological target: HIV-1 Env of BG505.w6m (HIV-1)
[45] = biological target: HIV-1 Env of RHPA.7 (HIV-1)
[46] = biological target: HIV-1 Env of CNE3 (HIV-1)
[47] = biological target: HIV-1 Env of Q461.e2 (HIV-1)
[48] = biological target: HIV-1 Env of Q259.d2.17 (HIV-1)

CAP256-VRC26.32 (antibody)
IC50 (neutralization, TZM-bl) [1]: 0.015 mg/L | IC50 (neutralization, TZM-bl) [2]: > 50 mg/L | IC50 (neutralization, TZM-bl) [3]: 17.8 mg/L | IC50 (neutralization, TZM-bl) [4]: > 50 mg/L | IC50 (neutralization, TZM-bl) [5]: > 50 mg/L | IC50 (neutralization, TZM-bl) [6]: > 50 mg/L | IC50 (neutralization, TZM-bl) [7]: > 50 mg/L | IC50 (neutralization, TZM-bl) [8]: > 50 mg/L | IC50 (neutralization, TZM-bl) [9]: > 50 mg/L | IC50 (neutralization, TZM-bl) [10]: > 50 mg/L | IC50 (neutralization, TZM-bl) [11]: > 50 mg/L | IC50 (neutralization, TZM-bl) [12]: > 50 mg/L | IC50 (neutralization, TZM-bl) [13]: 0.284 mg/L | IC50 (neutralization, TZM-bl) [14]: > 50 mg/L | IC50 (neutralization, TZM-bl) [15]: 0.561 mg/L | IC50 (neutralization, TZM-bl) [16]: > 50 mg/L | IC50 (neutralization, TZM-bl) [17]: > 50 mg/L | IC50 (neutralization, TZM-bl) [18]: > 50 mg/L | IC50 (neutralization, TZM-bl) [19]: 0.011 mg/L | IC50 (neutralization, TZM-bl) [20]: > 50 mg/L | IC50 (neutralization, TZM-bl) [21]: > 50 mg/L | IC50 (neutralization, TZM-bl) [22]: > 50 mg/L | IC50 (neutralization, TZM-bl) [23]: > 50 mg/L | IC50 (neutralization, TZM-bl) [24]: 0.032 mg/L | IC50 (neutralization, TZM-bl) [25]: > 50 mg/L | IC50 (neutralization, TZM-bl) [26]: > 50 mg/L | IC50 (neutralization, TZM-bl) [27]: > 50 mg/L | IC50 (neutralization, TZM-bl) [28]: > 50 mg/L | IC50 (neutralization, TZM-bl) [29]: > 50 mg/L | IC50 (neutralization, TZM-bl) [30]: 0.097 mg/L | IC50 (neutralization, TZM-bl) [31]: 0.008 mg/L | IC50 (neutralization, TZM-bl) [32]: > 50 mg/L | IC50 (neutralization, TZM-bl) [33]: > 50 mg/L | IC50 (neutralization, TZM-bl) [34]: > 50 mg/L | IC50 (neutralization, TZM-bl) [35]: > 50 mg/L | IC50 (neutralization, TZM-bl) [36]: 0.004 mg/L | IC50 (neutralization, TZM-bl) [37]: > 50 mg/L | IC50 (neutralization, TZM-bl) [38]: 16.8 mg/L | IC50 (neutralization, TZM-bl) [39]: > 50 mg/L | IC50 (neutralization, TZM-bl) [40]: > 50 mg/L | IC50 (neutralization, TZM-bl) [41]: > 50 mg/L | IC50 (neutralization, TZM-bl) [42]: > 50 mg/L | IC50 (neutralization, TZM-bl) [43]: > 50 mg/L | IC50 (neutralization, TZM-bl) [44]: > 50 mg/L | IC50 (neutralization, TZM-bl) [45]: > 50 mg/L | IC50 (neutralization, TZM-bl) [46]: > 50 mg/L | IC50 (neutralization, TZM-bl) [47]: > 50 mg/L | IC50 (neutralization, TZM-bl) [48]: > 50 mg/L

CAP256-VRC26.28 (antibody)
IC50 (neutralization, TZM-bl) [1]: 0.002 mg/L | IC50 (neutralization, TZM-bl) [2]: > 50 mg/L | IC50 (neutralization, TZM-bl) [3]: 6 mg/L | IC50 (neutralization, TZM-bl) [4]: > 50 mg/L | IC50 (neutralization, TZM-bl) [5]: > 50 mg/L | IC50 (neutralization, TZM-bl) [6]: > 50 mg/L | IC50 (neutralization, TZM-bl) [7]: 0.003 mg/L | IC50 (neutralization, TZM-bl) [8]: > 50 mg/L | IC50 (neutralization, TZM-bl) [9]: > 50 mg/L | IC50 (neutralization, TZM-bl) [10]: > 50 mg/L | IC50 (neutralization, TZM-bl) [11]: > 50 mg/L | IC50 (neutralization, TZM-bl) [12]: > 50 mg/L | IC50 (neutralization, TZM-bl) [13]: 0.008 mg/L | IC50 (neutralization, TZM-bl) [14]: 0.76 mg/L | IC50 (neutralization, TZM-bl) [15]: 0.64 mg/L | IC50 (neutralization, TZM-bl) [16]: > 50 mg/L | IC50 (neutralization, TZM-bl) [17]: > 50 mg/L | IC50 (neutralization, TZM-bl) [18]: > 50 mg/L | IC50 (neutralization, TZM-bl) [19]: < 0.0006 mg/L | IC50 (neutralization, TZM-bl) [20]: > 50 mg/L | IC50 (neutralization, TZM-bl) [21]: > 50 mg/L | IC50 (neutralization, TZM-bl) [22]: > 50 mg/L | IC50 (neutralization, TZM-bl) [23]: > 50 mg/L | IC50 (neutralization, TZM-bl) [24]: < 0.0006 mg/L | IC50 (neutralization, TZM-bl) [25]: 0.779 mg/L | IC50 (neutralization, TZM-bl) [26]: 0.005 mg/L | IC50 (neutralization, TZM-bl) [27]: > 50 mg/L | IC50 (neutralization, TZM-bl) [28]: > 50 mg/L | IC50 (neutralization, TZM-bl) [29]: > 50 mg/L | IC50 (neutralization, TZM-bl) [30]: 0.193 mg/L | IC50 (neutralization, TZM-bl) [31]: < 0.0006 mg/L | IC50 (neutralization, TZM-bl) [32]: 0.012 mg/L | IC50 (neutralization, TZM-bl) [33]: 0.016 mg/L | IC50 (neutralization, TZM-bl) [34]: > 50 mg/L | IC50 (neutralization, TZM-bl) [35]: 0.075 mg/L | IC50 (neutralization, TZM-bl) [36]: < 0.0006 mg/L | IC50 (neutralization, TZM-bl) [37]: > 50 mg/L | IC50 (neutralization, TZM-bl) [38]: 0.082 mg/L | IC50 (neutralization, TZM-bl) [39]: > 50 mg/L | IC50 (neutralization, TZM-bl) [40]: > 50 mg/L | IC50 (neutralization, TZM-bl) [41]: 6.85 mg/L | IC50 (neutralization, TZM-bl) [42]: 0.171 mg/L | IC50 (neutralization, TZM-bl) [43]: 29.4 mg/L | IC50 (neutralization, TZM-bl) [44]: 0.044 mg/L | IC50 (neutralization, TZM-bl) [45]: > 50 mg/L | IC50 (neutralization, TZM-bl) [46]: > 50 mg/L | IC50 (neutralization, TZM-bl) [47]: 1.59 mg/L | IC50 (neutralization, TZM-bl) [48]: 0.012 mg/L
